Measurements: patent US20240309070A1
Values belong to the substance of their own block, whether it stands above or below them.

How the values were obtained:
[1] = target: human insulin (human) (UniProt P01308); assay: polyreactivity ELISA, insulin coated, antibody 10 µg/mL, signal normalised to non-coated well
[2] = target: Western Reserve B5 on cells infected with VVddeGFP Western Reserve virus (Vaccinia virus, Western Reserve strain) (UniProt Q01227); assay: flow cytometry, SKOV3 cells infected with WR VV (negative control)
[3] = target: Western Reserve B5 on cells infected with VVddeGFP Western Reserve virus (Vaccinia virus, Western Reserve strain) (UniProt Q01227); assay: flow cytometry, HT29 cells infected with WR VV (negative control)
[4] = target: Copenhagen B5 on cells infected with VVCopenhagen (YFP) virus (Vaccinia virus, Copenhagen strain) (UniProt P21115); assay: flow cytometry, HT29 cells infected with Copenhagen VV (negative control)
[5] = target: tEGFR (truncated EGFR) on vector-only transduced T cells (Homo sapiens (Human)) (UniProt P00533)

Polyreactivity Insulin Score [1]: 2.9 score
Substance: Infliximab (antibody)

Substance: human IgG1k isotype control (antibody)
EC50 [2]: 0.01 nM
EC50 [3]: 0.02 nM
EC50 [4]: 0.01 nM

Substance: VV B5 monomer protein (Wyeth Vaccinia strain B5 with C-terminal AVI tag and HIS6 tag) (from UniProt O57254 18-279)
CAR+ % Parent [5]: 1.54%
